# From US20030228306A1
# Tests used:
# [1] = target: CC-chemokine receptor CCR5 (UniProt P51681); experiment: cell-based or functional assay
# [2] = target: CC-chemokine receptor CCR5 (UniProt P51681); experiment: flow cytometry on mitogen-stimulated PBMC, m.f.i.
# UniProt P51681, sequence (P51681 whole entry): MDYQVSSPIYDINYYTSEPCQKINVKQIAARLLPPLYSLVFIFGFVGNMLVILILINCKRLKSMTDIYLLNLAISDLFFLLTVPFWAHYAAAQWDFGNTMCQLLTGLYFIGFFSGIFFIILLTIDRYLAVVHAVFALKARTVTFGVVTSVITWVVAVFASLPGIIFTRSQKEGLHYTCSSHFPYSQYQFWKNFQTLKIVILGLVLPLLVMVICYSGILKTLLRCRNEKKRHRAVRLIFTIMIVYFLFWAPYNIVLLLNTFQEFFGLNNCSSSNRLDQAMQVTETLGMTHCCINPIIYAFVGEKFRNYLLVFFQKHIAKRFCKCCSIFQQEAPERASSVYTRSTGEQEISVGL
substance,measurement,setting,value
anti-CCR5 mAb 2D7 (antibody),"IC50, inhibition of JR-FL entry (luciferase entry assay)",[1],0.026 mg/L
same,"IC50, inhibition of fusion between PM1 cells and HeLa-EnvJR-FL+ cells (RET assay)",[1],1.6 mg/L
same,"K (equal to the IC50 value), inhibition of cell-cell fusion, median effect fit (RET assay)",[1],0.36 mg/L
anti-CCR5 monoclonal antibody PA14,fold difference in m.f.i. against PA9,[2],7 fold
same,"IC50, inhibition of JR-FL entry (luciferase entry assay)",[1],0.024 mg/L
same,"IC50, inhibition of fusion between PM1 cells and HeLa-EnvJR-FL+ cells (RET assay)",[1],1.7 mg/L
same,"IC50 for calcium influx inhibition, ratio against 2D7",[1],8 fold
